Test results reported in patent US20250333534A1 (HEFEI TG IMMUNOPHARMA, published 2025).
Positions count from the first letter of the chain named.

B1: human-mouse chimeric antibody mutgi1005-hIgG4 (antibody)
heavy: not shown
light: QAVVTQESALTTSPGETVTLTCRSSTGAVTTSNYANWVQEKPDHLFTGLIGGTNNRAPGVPARFSGSLIGDKAALTITGAQTEDEAIYFCALWYSNHFVFGGGTKLTVLGQPKAAPSVTLFPPSSEELQANKATLVCLISDFYPGAVTVAWKADSSPVKAGVETTTPSKQSNNKYAASSYLSLTPEQWKSHRSYSCQVTHEGSTVEKTVAPTECS
notes: Murine variable regions fused with wild-type human IgG4 and lambda constant regions; also called mutgi1005-hlgG4; chimeric CD155 antibody
B2: human-mouse chimeric antibody mutgi1005-hIgG1 (antibody)
heavy: not shown
light: B1 light
notes: Murine variable regions fused with wild-type human IgG1 and lambda constant regions; also called chimeric CD155 antibody
B3: murine CD155 antibody (mutgi1005) (antibody, mouse IgG2a)
heavy: QVQMQQSGAELVKPGASVKLSCKTSGFTFSSSYISWLKQKPGQSLEWIAWIYAGTGDTNYNQKFTGKAQVTVDTSSSTAYMQFSSLTTEDSAIYYCVRHGSTGRGWYFAVWGAGTTVTVSSAKTTAPSVYPLAPVCGDTTGSSVTLGCLVKGYFPEPVTLTWNSGSLSSGVHTFPAVLQSDLYTLSSSVTVTSSTWPSQSITCNVAHPASSTKVDKKIEPRGPTIKPCPPCKCPAPNLLGGPSVFIFPPKIKDVLMISLSPIVTCVVVDVSEDDPDVQISWFVNNVEVHTAQTQTHREDYNSTLRVVSALPIQHQDWMSGKEFKCKVNNKDLPAPIERTISKPKGSVRAPQVYVLPPPEEEMTKKQVTLTCMVTDFMPEDIYVEWTNNGKTELNYKNTEPVLDSDGSYFMYSKLRVEKKNWVERNSYSCSVVHEGLHNHHTTKSFSRTPGK
light: QAVVTQESALTTSPGETVTLTCRSSTGAVTTSNYANWVQEKPDHLFTGLIGGTNNRAPGVPARFSGSLIGDKAALTITGAQTEDEAIYFCALWYSNHFVFGGGTKLTVLQPKSSPSVTLFPPSSEELETNKATLVCTITDFYPGVVTVDWKVDGTPVTQGMETTQPSKQSNNKYMASSYLTLTARAWERHSSYSCQVTHEGHTVEKSLSRADCS
notes: also called murine monoclonal antibody; murine antibody
B4: affinity-matured humanized antibody V21 (tgi1005 V21-hIgG1/4) (antibody, V domains shown)
VH: QVQLVQSGAEVKKPGASVKVSCKASGYTFTSSYISWVRQAPGQGLEWIAWIYAGTGDTNYNQKFTGRVTMTTDTSTSTAYMELRSLRSDDTAVYYCARHGYTGRGWYFAVWGQGTTVTVSS
VL: QAVVTQEPSLTVSPGGTVTLTCRSSTGAVTTSNYANWVQQKPGQAFRGLIGGTNNRAPGVPARFSGSLLGDKAALTLSGAQPEDEAEYYCILWYSNHFVFGGGTKLTVL
B5: affinity-matured humanized antibody V40 (tgi1005 V40-hIgG1/4) (antibody, V domains shown)
VH: B4 VH with Y101M
VL: B4 VL with Y34L, G52H, H97K
B6: affinity-matured humanized antibody V20 (tgi1005 V20-hIgG1/4/1LALA) (antibody, V domains shown)
VH: B4 VH
VL: B4 VL with Y34L, G52H, I91A, H97K
B7: affinity-matured humanized antibody V28 (tgi1005 V28-hIgG1/4/1LALA) (antibody, V domains shown)
VH: B4 VH with Y101L, G105H
VL: B4 VL with Y34I, A57G, H97K

Molecular target: T1, Human CD155 protein (Human CD155), expressed on cells (human, UniProt P15151 21-417)
T1 construct: also called CHO-K1-human CD155; CHO-K1-CD155
T1 sequence: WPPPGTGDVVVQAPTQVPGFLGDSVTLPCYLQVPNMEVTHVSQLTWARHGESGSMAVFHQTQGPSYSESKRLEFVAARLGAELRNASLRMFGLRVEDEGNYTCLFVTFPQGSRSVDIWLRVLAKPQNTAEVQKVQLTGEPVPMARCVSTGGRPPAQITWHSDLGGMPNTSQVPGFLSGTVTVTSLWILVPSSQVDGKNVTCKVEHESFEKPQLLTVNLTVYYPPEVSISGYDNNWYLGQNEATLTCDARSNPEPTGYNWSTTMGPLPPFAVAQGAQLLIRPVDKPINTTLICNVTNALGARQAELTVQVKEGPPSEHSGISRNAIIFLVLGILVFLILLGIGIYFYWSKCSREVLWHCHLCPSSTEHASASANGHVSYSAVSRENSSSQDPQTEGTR
Experiment: flow cytometry on CHO-K1-human CD155 cells

Row | Binder | binding result
1 | B1 | binds
2 | B2 | binds
3 | B3 | binds
4 | B4 | binds
5 | B5 | binds
6 | B6 | binds
7 | B7 | binds
